PMC12317118

Molecular target: YFPN-hAQP4 (human aquaporin 4 fused N-terminally to the YFPN fragment) (human) (UniProt P55087)
Test: split reporter (BiFC, NanoBiT); YFPN-hAQP and YFPC-CaM co-expressed in S. cerevisiae; living cells at OD600 0.5 read by flow cytometry (FACSMelody, excitation 488 nm, FITC channel 527/32 nm); fluorescence frequency and intensity of gated cells; three transformations, ten replicates each

Sequence of UniProt P55087 (P55087 whole entry, the tested form may be a part): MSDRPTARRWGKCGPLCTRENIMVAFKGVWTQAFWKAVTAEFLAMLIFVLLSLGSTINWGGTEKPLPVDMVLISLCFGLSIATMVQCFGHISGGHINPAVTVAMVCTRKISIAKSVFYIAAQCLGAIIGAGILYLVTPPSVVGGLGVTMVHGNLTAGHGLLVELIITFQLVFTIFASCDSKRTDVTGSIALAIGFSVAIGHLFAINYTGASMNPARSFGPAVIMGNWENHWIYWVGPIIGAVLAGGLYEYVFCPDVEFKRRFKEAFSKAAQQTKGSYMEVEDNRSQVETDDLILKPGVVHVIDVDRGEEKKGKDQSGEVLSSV

YFPC-CaM (calmodulin fused N-terminally to the YFPC fragment) (from UniProt P0DP23 1-149) (natural protein)
average fluorescence intensity (BiFC): 1700
